Source: US20220153834A1 (UNIVERSITY HEALTH NETWORK, published 2022)
Changes are numbered by the printed parent chain. Each block holds one binder with its values, some of them ahead of it.

How the values were obtained:
[1] = molecular target: T1, Recombinant human TSG-6 (R&D Biosystems, catalog #2104-TS) (human, UniProt P98066 18-277); assay: ELISA of hybridoma supernatants on recombinant human TSG-6
T1 construct: Bought protein; also called hTSG-6; Tumor necrosis factor-inducible gene 6 protein
T1 sequence (P98066 18-277 limits assumed): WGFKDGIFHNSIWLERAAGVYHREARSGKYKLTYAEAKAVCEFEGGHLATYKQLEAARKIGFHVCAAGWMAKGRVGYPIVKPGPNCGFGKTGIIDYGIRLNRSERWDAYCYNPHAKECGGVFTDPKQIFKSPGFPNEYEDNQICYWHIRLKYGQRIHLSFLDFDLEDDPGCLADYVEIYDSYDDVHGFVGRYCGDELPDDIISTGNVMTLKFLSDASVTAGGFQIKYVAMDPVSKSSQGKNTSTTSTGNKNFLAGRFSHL
Procedure: (§1) Mouse antibodies directed against mouse TSG-6 protein (mTSG-6) were generated using conventional mouse monoclonal antibody techniques. Briefly, mice (strain SJL/J) were inoculated with KLH-coupled recombinant mouse TSG-6 (R&D Biosystems, catalog #2326-TS). After boosting, antibody titers were determined by ELISA, using a non-relevant His6-tagged protein as a control. Mice selected for fusion were sacrificed and hybridoma fusion was performed using the P3X63Ag8.653 murine myeloma cell line as a fusion partner. Clones were isolated by limiting dilution and selected by ELISA of hybridoma supernatants. Recombinant human TSG-6 (R&D Biosystems, catalog #2104-TS) was used as a substrate for ELISA assays thus facilitating the selection of human- and mouse-cross reactive clones (the two proteins are 92% identical at the amino acid level). Hybridoma mRNA was transcribed to cDNA and amplified by 5′-rapid amplification of cDNA ends (RACE). PCR products were cloned into an appropriate sequencing vector and sequenced by the dideoxy Sanger method. Multiple copies were sequenced to verify the clonality of each clone. Translated protein sequences were entered into the NCBI IgBLAST search tool (Ye, J., et al., 2013, Nucleic Acids Res. 41, W34-40) to identify CDRs.

[2] = molecular target: T2, Recombinant mouse TSG-6 (R&D Biosystems, catalog #2326-TS) (mouse, UniProt O08859 18-275); assay: hybridoma raised against mouse TSG-6; clone selection by ELISA
T2 construct: Bought protein, used KLH-coupled as the immunogen; also called mTSG-6
T2 sequence (O08859 18-275 limits assumed): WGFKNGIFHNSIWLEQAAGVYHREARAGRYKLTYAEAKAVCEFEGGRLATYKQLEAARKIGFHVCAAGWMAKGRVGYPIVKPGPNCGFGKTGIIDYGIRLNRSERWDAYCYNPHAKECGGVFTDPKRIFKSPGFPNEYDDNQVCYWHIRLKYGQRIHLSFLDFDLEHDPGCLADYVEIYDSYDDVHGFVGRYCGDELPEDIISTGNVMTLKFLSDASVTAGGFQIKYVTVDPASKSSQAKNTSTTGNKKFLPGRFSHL
Procedure: as §1

B1: 4F1 (antibody, V domains shown)
VH: EVKLVESGGGLVQPGGSLSLSCAASGFTFTDYYMSWVRQPPGKALEWLGFIRHKAKGYTAEYSASVKGRFTISRDNSQSILYLQMNALRAEDSATYYCARLYYYGSPHWYFDVWGTGTTVTVSS
VL: QIVLTQSPAIMSASPGEKVTMTCSASSSVSYMHWYQQKSGTSPKRWIYDTSKLASGVPARFSGSGSGTSYSLTISSMEAEDAATYYCQQWSSNPPTFGSGTELEIKR
notes: Entries as printed include a leader and part of the constant region
binding result [1]: binds
binding result [2]: binds

B2: 4E4 (antibody, V domains shown)
VH: QVQLQQPGAELVKPGASVKLSCKASGYTFTSYWMHWVKQRPGQGLEWIGMIHPNSGSTNYNEKFKNKATLTVDKSSSTAYMQLSSLTSEDSAVYYCAPRMFDDYDDYWGQGTTLTVSS
VL: QIVLTQSPAIMSASLGERVTMTCTASSSVSSSYLHWYQQKPGSSPKLWIYSTSNLASGVPVRFSGSGSGTSYSLTISRMEAEDAATYYCHHYHRSPYTFGGGTKLEIKR
notes: as for B1
binding result [1]: binds
binding result [2]: binds

B3: 5D9 (antibody, V domains shown)
VH: QVQLQQSGAELARPGASVKLSCKASDDTFINYGINWVKQRTGQGLEWIGETFPSNGNTFYNEKFKGKATLTADRSSSTTYMELRSLTSEDAAVYFCARHSNLPYFDHWGQGSTLTVSS
VL: DIVMTQSPSSLSVSAGEKVTMSCKSSQSLLNSGNQKNYLAWYQQKPGQPPKLLIYGASTRESGVPERFTGSGSGTDFTLTISSVQAEDLAVYYCQNDHSYPFTFGGGTNLEIKR
notes: as for B1
binding result [1]: binds
binding result [2]: binds

B4: 5B4 (antibody, V domains shown)
VH: QVQLQQPGAELVKPGASVKLSCKASDYTFTNYWMHWVKQRPGRGLEWIGRIDPSSGGAKYNEKFKSKATLTVDKPSSTAYMEFSSLTSEDSAVYYCVRSRYDYDGWFAYWGLGTLVTVSA
VL: DIVMTQAAPSVPVTPGESVSISCRSSKSLLHSNGNTYLYWFLQRPGQSPQLLIYRMSNLASGVPDRFSGSGSGTAFTLRISRVEAEDVGVYYCMQHLEYPFTFGGGTKLEIKR
notes: Its printed constant part differs from that of the other IgG1 entries; Entries as printed include a leader and part of the constant region
binding result [1]: binds
binding result [2]: binds

B5: 3C6 (antibody, V domains shown)
VH: EVQLQQSGPELVKPGASVKIPCKASGYTFTDYNMDWVKQSHGESLEWIGDIYPNNGGTIYNQKFKDKATLTVDKSSSTAYMELRSLTSEDNAVYYCARKTGTGFDYWGQGTTLTVSS
VL: QIVLSQSPAILSASPGEKVTMTCRARSSVIYMHWYQQKPGSSPKPWIYATFNLASGVPARFSGSGSGTSYSLTISRVEAEDAATYYCQQWSSNPPTFGSGTKLEIKR
notes: Entries as printed include a leader and part of the constant region; also called anti-TSG-6 antibody 3C6
binding result [1]: binds
binding result [2]: binds

B6: 3E4 (antibody, V domains shown)
VH: QVQLQQPGAELVKPGASVKLSCKASGYTFTSQWMHWVKQRPGQGLEWIGMIHPNSGSTNNNEKFKSKATLTVDKSSSTAYMQLSSLTSEDSAVYYCTRWAMDYWGQGTSVTASS
VL: DVVMTQTPLSLPVSLGDLASISCRSSQSLVHSNGNTYLHWYLQKPGQSPKLLIFKVSNRFSGVPDRFSGSGSGTDFTLKISRVEAEDLGVYFCSQSTHVPWTFGGGTKLEIKR
notes: as for B1
binding result [1]: binds
binding result [2]: binds

B8: 3E1 (antibody, V domains shown)
VH: QVQLQQSGAELAKPGASVRLSCQASGYTFTSYWMHWVKQRPRQGLEWIGYIIPSSGYTKCHQKFKDKATLTADKSSSTAYMQLSSLTYEDSAVYYCARSTSGYPYYFDSWGQGTTLTVSS
VL: ENVLTQSPAIMSASPGERVTMTCSATSSVSFMHWYQQKSSTSPKLWIYDTSKLASGVPGRFSGSGSGNSYSLTISSMEAEDVATYYCFQGSWYPLTFGAGTKLELKR
notes: as for B1
binding result [1]: binds
binding result [2]: binds

Other lines, results leading:

binding result [1]: binds
binding result [2]: binds
B7: anti-TSG-6 antibody of SEQ ID NO: 1 and SEQ ID NO: 2 (first entry of Table 1, clone name not printed) (antibody, IgG1, V domains shown)
VH: QVRLQQSGAELAKPGASVKLSCKASGYTFTSYWMHWVKQRPGQGLEWIGYIIPSSGYTKNKQNFKDKATLTADKSSSTAYMQLSNLTYEDSAVYSCARSDGSYPYYFDYWGQGTTLTVSS
VL: B8 VL with R18K, T26S, F31Y, W92G, A99S, L105I

binding result [1]: binds
binding result [2]: binds
B9: 5A5 (antibody, V domains shown)
VH: B8 VH with S31T, T58S, S77N, Y80S, S109Y
VL: B8 VL with R18K, F31Y
notes: as for B1

binding result [1]: binds
binding result [2]: binds
B10: 1A9 (antibody, V domains shown)
VH: EVQLQQSGPELVKPGASVKISCKASGYTFTDYYMNWVKQSHEKSLEWIGDINPNNGGTSYNQKFMGKATLTVDKSSRTAYMELRSLTSEDSTVYYCARWGIYDRFTYWGQGTLVSVSA
VL: DIKMTQSPSSMYASLGERVTIACKASQDINSFLSWFQQKPGKSPKTLIYRANRLVDGVPSRFSGSGSGQDYSLTISSLEYEDMGIYYCLQYDEFPLTFGAGTKLELKR
notes: as for B1

binding result [1]: binds
binding result [2]: binds
B11: 1D7 (antibody, V domains shown)
VH: B10 VH with E42G, S59T, M65K, R77S, T92A, Y102F, L113V, S115T
VL: B10 VL with L15R, A22T
notes: as for B1
